Positions of bridges follow the written chain, without caps; N, C: chain ends. Non-standard residues stand in square brackets, D forms with d. R8 = C=CCCCCCC[C@@](C)(N)C(=O)O; S5 = C=CCCC[C@](C)(N)C(=O)O
Experiments:
Experiment in all cases: Ki table, method not stated
[1] = target: T1, MCL-1 (UniProt Q07820 172-327, limits assumed)
T1 construct: also called Myeloid cell leukemia 1

[2] = target: BCL-2 (UniProt P10415 1-217, limits assumed)
[3] = target: BCL-XL (UniProt Q07817 1-209)
Sequence of BCL-XL (Q07817 1-209): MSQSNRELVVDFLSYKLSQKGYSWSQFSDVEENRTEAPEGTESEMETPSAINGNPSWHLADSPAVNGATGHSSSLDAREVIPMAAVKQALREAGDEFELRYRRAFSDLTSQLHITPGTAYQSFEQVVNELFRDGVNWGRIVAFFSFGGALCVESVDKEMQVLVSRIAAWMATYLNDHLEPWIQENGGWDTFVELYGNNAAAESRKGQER

T1 sequence (Q07820 172-327 limits assumed): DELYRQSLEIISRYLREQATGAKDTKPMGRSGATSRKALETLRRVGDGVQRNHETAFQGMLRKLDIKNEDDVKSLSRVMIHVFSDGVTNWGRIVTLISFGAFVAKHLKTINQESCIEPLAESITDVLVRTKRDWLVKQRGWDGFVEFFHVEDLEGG
Sequence of BCL-2 (P10415 1-217 limits assumed): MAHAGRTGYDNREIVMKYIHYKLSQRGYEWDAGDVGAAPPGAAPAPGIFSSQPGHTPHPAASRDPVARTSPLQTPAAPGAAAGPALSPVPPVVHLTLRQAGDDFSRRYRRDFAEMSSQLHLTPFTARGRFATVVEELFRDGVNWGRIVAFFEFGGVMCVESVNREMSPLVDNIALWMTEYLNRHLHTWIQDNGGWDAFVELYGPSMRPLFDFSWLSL

Ki [1] | Ki [2] | Ki [3] | Binder
1 nM | 6 nM | 1 nM | Ac-IWIAAALR[R8]IGDEFN[S5]YYA-NH2 (staple 9-16; SMILES CC[C@H](C)[C@H](NC(C)=O)C(=O)N[C@@H](Cc1c[nH]c2ccccc12)C(=O)N[C@H](C(=O)N[C@@H](C)C(=O)N[C@@H](C)C(=O)N[C@@H](C)C(=O)N[C@@H](CC(C)C)C(=O)N[C@@H](CCCNC(=N)N)C(=O)N[C@]1(C)CCCCCCC=CCCC[C@@](C)(C(=O)N[C@@H](Cc2ccc(O)cc2)C(=O)N[C@@H](Cc2ccc(O)cc2)C(=O)N[C@@H](C)C(N)=O)NC(=O)[C@H](CC(N)=O)NC(=O)[C@H](Cc2ccccc2)NC(=O)[C@H](CCC(=O)O)NC(=O)[C@H](CC(=O)O)NC(=O)CNC(=O)[C@H]([C@@H](C)CC)NC1=O)[C@@H](C)CC) [SEQ ID NO: 1651]
14.8 nM | 27.5 nM | 6.3 nM | Ac-IWIAQALQ[R8]IGDQFN[S5]YYA-NH2 (staple 9-16; SMILES CC[C@H](C)[C@H](NC(C)=O)C(=O)N[C@@H](Cc1c[nH]c2ccccc12)C(=O)N[C@H](C(=O)N[C@@H](C)C(=O)N[C@@H](CCC(N)=O)C(=O)N[C@@H](C)C(=O)N[C@@H](CC(C)C)C(=O)N[C@@H](CCC(N)=O)C(=O)N[C@]1(C)CCCCCCC=CCCC[C@@](C)(C(=O)N[C@@H](Cc2ccc(O)cc2)C(=O)N[C@@H](Cc2ccc(O)cc2)C(=O)N[C@@H](C)C(N)=O)NC(=O)[C@H](CC(N)=O)NC(=O)[C@H](Cc2ccccc2)NC(=O)[C@H](CCC(N)=O)NC(=O)[C@H](CC(=O)O)NC(=O)CNC(=O)[C@H]([C@@H](C)CC)NC1=O)[C@@H](C)CC) [SEQ ID NO: 1660]
76.2 nM | 365 nM | 325 nM | Ac-IWIAQALQ[R8]IGDAFN[S5]YYA-NH2 (staple 9-16; SMILES CC[C@H](C)[C@H](NC(C)=O)C(=O)N[C@@H](Cc1c[nH]c2ccccc12)C(=O)N[C@H](C(=O)N[C@@H](C)C(=O)N[C@@H](CCC(N)=O)C(=O)N[C@@H](C)C(=O)N[C@@H](CC(C)C)C(=O)N[C@@H](CCC(N)=O)C(=O)N[C@]1(C)CCCCCCC=CCCC[C@@](C)(C(=O)N[C@@H](Cc2ccc(O)cc2)C(=O)N[C@@H](Cc2ccc(O)cc2)C(=O)N[C@@H](C)C(N)=O)NC(=O)[C@H](CC(N)=O)NC(=O)[C@H](Cc2ccccc2)NC(=O)[C@H](C)NC(=O)[C@H](CC(=O)O)NC(=O)CNC(=O)[C@H]([C@@H](C)CC)NC1=O)[C@@H](C)CC) [SEQ ID NO: 1659]
3.4 nM | 113 nM | 14.1 nM | Ac-IWIAQALR[R8]IGDAIN[S5]YYA-NH2 (staple 9-16; SMILES CC[C@H](C)[C@H](NC(C)=O)C(=O)N[C@@H](Cc1c[nH]c2ccccc12)C(=O)N[C@H](C(=O)N[C@@H](C)C(=O)N[C@@H](CCC(N)=O)C(=O)N[C@@H](C)C(=O)N[C@@H](CC(C)C)C(=O)N[C@@H](CCCNC(=N)N)C(=O)N[C@]1(C)CCCCCCC=CCCC[C@@](C)(C(=O)N[C@@H](Cc2ccc(O)cc2)C(=O)N[C@@H](Cc2ccc(O)cc2)C(=O)N[C@@H](C)C(N)=O)NC(=O)[C@H](CC(N)=O)NC(=O)[C@H]([C@@H](C)CC)NC(=O)[C@H](C)NC(=O)[C@H](CC(=O)O)NC(=O)CNC(=O)[C@H]([C@@H](C)CC)NC1=O)[C@@H](C)CC) [SEQ ID NO: 1662]
7.5 nM | 140 nM | 402 nM | Ac-IWIAQALR[R8]IGDAAN[S5]YYA-NH2 (staple 9-16; SMILES CC[C@H](C)[C@H](NC(C)=O)C(=O)N[C@@H](Cc1c[nH]c2ccccc12)C(=O)N[C@H](C(=O)N[C@@H](C)C(=O)N[C@@H](CCC(N)=O)C(=O)N[C@@H](C)C(=O)N[C@@H](CC(C)C)C(=O)N[C@@H](CCCNC(=N)N)C(=O)N[C@]1(C)CCCCCCC=CCCC[C@@](C)(C(=O)N[C@@H](Cc2ccc(O)cc2)C(=O)N[C@@H](Cc2ccc(O)cc2)C(=O)N[C@@H](C)C(N)=O)NC(=O)[C@H](CC(N)=O)NC(=O)[C@H](C)NC(=O)[C@H](C)NC(=O)[C@H](CC(=O)O)NC(=O)CNC(=O)[C@H]([C@@H](C)CC)NC1=O)[C@@H](C)CC) [SEQ ID NO: 1661]
6.7 nM | 65.4 nM | 25.6 nM | Ac-IWIAAALR[R8]IGDAFN[S5]YYA-NH2 (staple 9-16; SMILES CC[C@H](C)[C@H](NC(C)=O)C(=O)N[C@@H](Cc1c[nH]c2ccccc12)C(=O)N[C@H](C(=O)N[C@@H](C)C(=O)N[C@@H](C)C(=O)N[C@@H](C)C(=O)N[C@@H](CC(C)C)C(=O)N[C@@H](CCCNC(=N)N)C(=O)N[C@]1(C)CCCCCCC=CCCC[C@@](C)(C(=O)N[C@@H](Cc2ccc(O)cc2)C(=O)N[C@@H](Cc2ccc(O)cc2)C(=O)N[C@@H](C)C(N)=O)NC(=O)[C@H](CC(N)=O)NC(=O)[C@H](Cc2ccccc2)NC(=O)[C@H](C)NC(=O)[C@H](CC(=O)O)NC(=O)CNC(=O)[C@H]([C@@H](C)CC)NC1=O)[C@@H](C)CC) [SEQ ID NO: 1653]
6 nM | 22 nM | 4 nM | Ac-IWIAAALR[R8]IGDQFN[S5]YYA-NH2 (staple 9-16; SMILES CC[C@H](C)[C@H](NC(C)=O)C(=O)N[C@@H](Cc1c[nH]c2ccccc12)C(=O)N[C@H](C(=O)N[C@@H](C)C(=O)N[C@@H](C)C(=O)N[C@@H](C)C(=O)N[C@@H](CC(C)C)C(=O)N[C@@H](CCCNC(=N)N)C(=O)N[C@]1(C)CCCCCCC=CCCC[C@@](C)(C(=O)N[C@@H](Cc2ccc(O)cc2)C(=O)N[C@@H](Cc2ccc(O)cc2)C(=O)N[C@@H](C)C(N)=O)NC(=O)[C@H](CC(N)=O)NC(=O)[C@H](Cc2ccccc2)NC(=O)[C@H](CCC(N)=O)NC(=O)[C@H](CC(=O)O)NC(=O)CNC(=O)[C@H]([C@@H](C)CC)NC1=O)[C@@H](C)CC) [SEQ ID NO: 1652]
7.4 nM | 115 nM | 55.7 nM | Ac-IWIAQALR[R8]IGDAFA[S5]YYA-NH2 (staple 9-16; SMILES CC[C@H](C)[C@H](NC(C)=O)C(=O)N[C@@H](Cc1c[nH]c2ccccc12)C(=O)N[C@H](C(=O)N[C@@H](C)C(=O)N[C@@H](CCC(N)=O)C(=O)N[C@@H](C)C(=O)N[C@@H](CC(C)C)C(=O)N[C@@H](CCCNC(=N)N)C(=O)N[C@]1(C)CCCCCCC=CCCC[C@@](C)(C(=O)N[C@@H](Cc2ccc(O)cc2)C(=O)N[C@@H](Cc2ccc(O)cc2)C(=O)N[C@@H](C)C(N)=O)NC(=O)[C@H](C)NC(=O)[C@H](Cc2ccccc2)NC(=O)[C@H](C)NC(=O)[C@H](CC(=O)O)NC(=O)CNC(=O)[C@H]([C@@H](C)CC)NC1=O)[C@@H](C)CC) [SEQ ID NO: 1654]
